According to article PMC6269442, “High resolution X-ray and NMR structural study of human T-cell immunoglobulin and mucin domain containing protein-3” (Scientific Reports, 2018):

Target: T1, tagless human TIM-3 IgV domain (human, UniProt Q8TDQ0 24-130)
T1 construct: N-terminal methionine added before Val24; T-cell immunoglobulin and mucin domain containing protein-3 (TIM-3, HAVCR2), human, IgV domain, Val24 thru Lys130; the same tagless protein was used for crystallization and ELISA; also called tagless hTIM-3 IgV domain; hTIM-3 IgV domain
Assay: ELISA; tagless hTIM-3 IgV (50 μl of 250 nM) coated on the plate; GST tagged hCEACAM1 IgV (0–15 μM) or GST control in Dulbeccos PBS; detected with goat polyclonal anti-GST-HRP
Conditions: both partners purified

T1 sequence (Q8TDQ0 other isoform, or with tags, fused parts or gaps): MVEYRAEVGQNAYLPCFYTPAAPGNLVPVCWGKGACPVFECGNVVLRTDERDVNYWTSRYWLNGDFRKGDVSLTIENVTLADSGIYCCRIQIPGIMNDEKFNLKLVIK

EC50: 3.13 µM
B1: glutathione-S-transferase (GST) tagged hCEACAM1 IgV-domain protein (domain or fragment, human, UniProt P13688 35-142, looked up)
chain: QLTTESMPFNVAEGKEVLLLVHNLPQQLFGYSWYKGERVDGNRQIVGYAIGTQQATPGPANSGRETIYPNASLLIQNVTQNDTGFYTLQVIKSDLVNEEATGQFHVYP
notes: carcinoembryonic antigen cell adhesion molecule 1 (CEACAM1), human, IgV (N-terminal) domain; Detected by an anti-GST-HRP antibody; also called GST-hCEACAM1 IgV fusion protein
